Experimental data published in patent US20240122847A1, “ORAL POLYPEPTIDE FORMULATIONS” (Bhami's Research Laboratory, Pvt. Ltd., priority 2022, published 2024).
Where two headings read alike, the source gives them in different places.

Assays:
[1] = Pharmacokinetics of hGH in minipigs, sugar truffle buccal/sublingual vs intravenous, plasma hGH ELISA; format: in vivo; settings: for Mean hGH levels: pigs, plasma
Experimental: Pharmacokinetic analysis was conducted in Female Minipigs weighing 12±1 kg for 2 days. Pigs in the oral treatment group was either fasted overnight or fed prior to the test sample administration. All the test animals in the treatment groups were administered with respective test formulation to the pre-designated animals. The animal was restrained and its head was held vertically, the jaws were pulled away, the tongue was gently lifted with a forceps followed by placement of a polypeptide formulation as described herein buccally/sublingually. After placing a polypeptide formulation as described herein, the snout was held together for about 1-2 mins to prevent the chewing of the polypeptide formulation. The time of dosage of each animal was noted. […] Plasma samples collected at different time points were analyzed by ELISA kit according to Creative Diagnostics protocol. This kit is based on sandwich enzyme-linked immuno-sorbent assay technology. […] Standards, test samples, and biotin-conjugated reagent were added to the wells and incubated. The HRP-conjugated reagent was then added, and the whole plate was incubated. Unbound conjugates were removed using wash buffer at each stage. TMB substrate was used to quantify the HRP enzymatic reaction.
Pharmacokinetic endpoints were determined using noncompartmental methods using PK Solutions software. AUC was approximated using the trapezoidal rule on the observed concentrations. […] The terminal elimination rate constant (λz) was estimated by log-linear regression on the terminal part of the concentration-time curve, and t ½ was then calculated as t ½=ln 2/X z.

[2] = minipig, in vivo
Experimental: Pharmacokinetic analysis was conducted in Female Minipigs weighing 12±1 kg for 2 days. Pigs in the treatment group were fasted overnight prior to the test sample administration. All the test animals in the treatment groups were administered with respective test formulation to the pre-designated animals. The animal was restrained and its head was held vertically, the jaws were pulled away, the tongue was gently lifted with a forceps followed by placement of a polypeptide formulation as described herein buccally/sublingually. After placing a polypeptide formulation as described herein, the snout was held together for about 1-2 mins to prevent the chewing of the polypeptide formulation. The time of dosage of each animal was noted. Blood samples were collected at aforementioned time points 0 min, 15 min, 30 min, 1 hour, 2 hours, 4 hours, 8 hours, 12 hours, 24 hours, and 48 hours into an EDTA-blood collection tubes for the separation of plasma to determine insulin levels by ELISA. Plasma samples collected at different time points were analyzed by ELISA kit according to ABBEXA protocol. This kit is based on sandwich enzyme-linked immuno-sorbent assay technology. An antibody, anti-insulin was pre-coated onto a 96-well plate. Standards, test samples, and biotin-conjugated reagent were added to the wells and incubated. The HRP-conjugated reagent was then added, and the whole plate was incubated. Unbound conjugates were removed using wash buffer at each stage. TMB substrate was used to quantify the HRP enzymatic reaction. After TMB substrate was added, only wells that contain sufficient INS will produce a blue colored product, which then changes to yellow after adding the acidic stop solution. The intensity of the yellow color is proportional to the INS amount bound on the plate. The Optical Density (OD) was measured spectrophotometrically at 450 nm in a microplate reader, from which the concentration of INS can be calculated.
Insulin was analyzed in plasma using a specific enzyme linked immunosorbent assay (ELISA). Pharmacokinetic endpoints were determined using noncompartmental methods using PK Solutions software. AUC was approximated using the trapezoidal rule on the observed concentrations. C max for each Insulin dose was derived as the maximum of all valid concentrations, and t max was then determined as the corresponding time point to C max. The terminal elimination rate constant (λz) was estimated by log-linear regression on the terminal part of the concentration-time curve, and t ½ was then calculated as t ½=ln 2/λz.

[3] = rat, in vivo
Experimental: Pharmacokinetic analysis was conducted in Female rats weighing 220-250 grams for 2 days. Rats in the oral treatment group was fasted overnight prior to the test sample administration. All the test animals in the treatment groups were administered with respective test formulation to the pre-designated animals. The animal was restrained and its head was held vertically, the jaws were pulled away, the tongue was gently lifted with a forceps followed by placement of a polypeptide formulation as described herein buccally/sublingually. After placing a polypeptide formulation as described herein, the snout was held together for about 1-2 mins to prevent the chewing of the polypeptide formulation. The time of dosage of each animal was noted. Blood samples were collected at aforementioned time points 0 min, 15 min, 30 min, 1 hour, 2 hours, 4 hours, 8 hours, 12 hours, 24 hours, and 48 hours into an EDTA-blood collection tubes for the separation of plasma to determine insulin levels by ELISA. Plasma samples collected at different time points were analyzed by ELISA kit according to ABBEXA protocol. This kit is based on sandwich enzyme-linked immuno-sorbent assay technology. An antibody, anti-insulin was pre-coated onto a 96-well plate. Standards, test samples, and biotin-conjugated reagent were added to the wells and incubated. The HRP-conjugated reagent was then added, and the whole plate was incubated. Unbound conjugates were removed using wash buffer at each stage. TMB substrate was used to quantify the HRP enzymatic reaction. After TMB substrate was added, only wells that contain sufficient INS will produce a blue colored product, which then changes to yellow after adding the acidic stop solution. The intensity of the yellow color is proportional to the INS amount bound on the plate. The Optical Density (OD) was measured spectrophotometrically at 450 nm in a microplate reader, from which the concentration of INS can be calculated.
Insulin was analyzed in plasma using a specific enzyme linked immunosorbent assay (ELISA). Pharmacokinetic endpoints were determined using noncompartmental methods using PK Solutions software. AUC was approximated using the trapezoidal rule on the observed concentrations. C max for each Insulin dose was derived as the maximum of all valid concentrations, and t max was then determined as the corresponding time point to C max. The terminal elimination rate constant (λz) was estimated by log-linear regression on the terminal part of the concentration-time curve, and t ½ was then calculated as t½=ln 2/λz.

[4] = in vivo
[5] = minipigs, buccal/sublingual hGH formulation
[6] = minipigs, intravenous hGH formulation

Question: For “hGH: human growth hormone (human recombinant), Norditropin NordiFlex; lyophilized microparticles in sugar truffle shell”, which “AUC 0-inf/D_obs” value [1, 5] is on record?
Answer: 49506.598 pg·h/mL/mg

Question: And the “AUC 0-inf/D_pred” value [1, 5]?
Answer: 49536.628 pg·h/mL/mg

Question: What about the “AUC 0-inf_obs” value [1, 5] of the same substance?
Answer: 123.766495 ng·h/mL

Question: What about the “AUC 0-inf_pred” value [1, 5] of the same substance?
Answer: 123.84157 ng·h/mL

Question: What about the “AUC 0-t” value [1, 5] of the same substance?
Answer: 118.956091 ng·h/mL

Question: What about the “AUC t-inf_obs” value [1, 5] of the same substance?
Answer: 4.810404 ng·h/mL

Question: And the “AUC t-inf_pred” value [1, 5]?
Answer: 4.885479 ng·h/mL

Question: And the “AUMC 0-inf_obs” value [1, 5]?
Answer: 1203569.518 pg/ml*h^2

Question: And the “AUMC 0-inf_pred” value [1, 5]?
Answer: 1208579.228 pg/ml*h^2

Question: And the “AUMC 0-t” value [1, 5]?
Answer: 882575.168 pg/ml*h^2

Question: And the “AUMC t-inf_obs” value [1, 5]?
Answer: 320994.350 pg/ml*h^2

Question: And the “AUMC t-inf_pred” value [1, 5]?
Answer: 326004.060 pg/ml*h^2

Question: And the Cl/F_obs [1, 5]?
Answer: 0.000 (mg)/(pg/ml)/h

Question: And the Cl/F_pred [1, 5]?
Answer: 0.000 (mg)/(pg/ml)/h

Question: And the Clast_obs [1, 5]?
Answer: 0.25684 ng/mL

Question: And the Clast_pred [1, 5]?
Answer: 0.260848 ng/mL

Question: And the Cmax [1, 5]?
Answer: 27.12344 ng/mL

Question: And the Lambda_z [1, 5]?
Answer: 0.053 h⁻¹

Question: What about the “MRT 0-inf_obs” value [1, 5] of the same substance?
Answer: 9.725 h

Question: What about the “MRT 0-inf_pred” value [1, 5] of the same substance?
Answer: 9.759 h

Question: And the “MRT 0-t” value [1, 5]?
Answer: 7.419 h

Question: And the Tlag [1, 5]?
Answer: 0.000 h

Question: And the Tlast [1, 5]?
Answer: 48.000 h

Question: What about the Tmax [1, 5] of the same substance?
Answer: 1.000 h

Question: And the Vz/F_obs [1, 5]?
Answer: 0.000 (mg)/(pg/ml)

Question: And the Vz/F_pred [1, 5]?
Answer: 0.000 (mg)/(pg/ml)

Question: And the t½ [1, 5]?
Answer: 12.982 h

Question: And the “AUC 0-inf/D_obs” value [1, 6]?
Answer: 485023.532 pg·h/mL/mg

Question: What about the “AUC 0-inf/D_pred” value [1, 6] of the same substance?
Answer: 479198.128 pg·h/mL/mg

Question: And the “AUC 0-inf_obs” value [1, 6]?
Answer: 160.057765 ng·h/mL

Question: And the “AUC 0-inf_pred” value [1, 6]?
Answer: 158.135382 ng·h/mL

Question: What about the “AUC 0-t” value [1, 6] of the same substance?
Answer: 154.059131 ng·h/mL

Question: What about the “AUC t-inf_obs” value [1, 6] of the same substance?
Answer: 5.998634 ng·h/mL

Question: And the “AUC t-inf_pred” value [1, 6]?
Answer: 4.076251 ng·h/mL

Question: And the “AUMC 0-inf_obs” value [1, 6]?
Answer: 1696005.242 pg/ml*h^2

Question: What about the “AUMC 0-inf_pred” value [1, 6] of the same substance?
Answer: 1578826.575 pg/ml*h^2

Question: And the “AUMC 0-t” value [1, 6]?
Answer: 1330359.118 pg/ml*h^2

Question: What about the “AUMC 0-t/0-inf_pred” value [1, 6] of the same substance?
Answer: 0.843

Question: And the “AUMC t-inf_obs” value [1, 6]?
Answer: 365646.123 pg/ml*h^2

Question: And the “AUMC t-inf_pred” value [1, 6]?
Answer: 248467.457 pg/ml*h^2

Question: And the C0 [1, 6]?
Answer: 18.14454 ng/mL

Question: And the Cl_obs [1, 6]?
Answer: 0.000 (mg)/(pg/ml)/h

Question: And the Clast_obs [1, 6]?
Answer: 0.46304 ng/mL

Question: What about the Clast_pred [1, 6] of the same substance?
Answer: 0.31465 ng/mL

Question: What about the Cmax [1, 6] of the same substance?
Answer: 22.5132 ng/mL

Question: And the Lambda_z [1, 6]?
Answer: 0.077 h⁻¹

Question: And the “MRT 0-inf_obs” value [1, 6]?
Answer: 10.596 h

Question: And the “MRT 0-inf_pred” value [1, 6]?
Answer: 9.984 h

Question: What about the “MRT 0-t” value [1, 6] of the same substance?
Answer: 8.635 h

Question: What about the Tlast [1, 6] of the same substance?
Answer: 48.000 h

Question: What about the Tmax [1, 6] of the same substance?
Answer: 0.500 h

Question: And the Vss_obs [1, 6]?
Answer: 0.000 (mg)/(pg/ml)

Question: And the Vz_obs [1, 6]?
Answer: 0.000 (mg)/(pg/ml)

Question: And the t½ [1, 6]?
Answer: 8.980 h

Question: And the “Mean hGH levels” value ([1]; GI- IV, time 0 hrs)?
Answer: 18144.54 ± 1619.64 pg/mL

Question: What about the “Mean hGH levels” value ([1]; GI- IV, time 0.08 hrs) of the same substance?
Answer: 20014.87 ± 620.32 pg/mL

Question: And the “Mean hGH levels” value ([1]; GI- IV, time 0.5 hrs)?
Answer: 22513.2 ± 562.85 pg/mL

Question: What about the “Mean hGH levels” value ([1]; GI- IV, time 1 hrs) of the same substance?
Answer: 22130.7 ± 728.54 pg/mL

Question: And the “Mean hGH levels” value ([1]; GI- IV, time 4 hrs)?
Answer: 14910.13 ± 2908.87 pg/mL

Question: What about the “Mean hGH levels” value ([1]; GI- IV, time 8 hrs) of the same substance?
Answer: 1159.19 ± 226.15 pg/mL

Question: And the “Mean hGH levels” value ([1]; GI- IV, time 24 hrs)?
Answer: 1495.55 ± 291.77 pg/mL

Question: And the “Mean hGH levels” value ([1]; GI- IV, time 48 hrs)?
Answer: 463.04 ± 90.34 pg/mL

Question: And the “Mean hGH levels” value ([1]; GII- Buccal/sublingual, time 0 hrs)?
Answer: 20672.24 ± 1140.76 pg/mL

Question: And the “Mean hGH levels” value ([1]; GII- Buccal/sublingual, time 0.08 hrs)?
Answer: 18582.31 ± 1303.34 pg/mL

Question: What about the “Mean hGH levels” value ([1]; GII- Buccal/sublingual, time 0.5 hrs) of the same substance?
Answer: 26137.66 ± 4718.88 pg/mL

Question: What about the “Mean hGH levels” value ([1]; GII- Buccal/sublingual, time 1 hrs) of the same substance?
Answer: 27123.44 ± 382.69 pg/mL

Question: What about the “Mean hGH levels” value ([1]; GII- Buccal/sublingual, time 4 hrs) of the same substance?
Answer: 2681.8 ± 1281.33 pg/mL

Question: And the “Mean hGH levels” value ([1]; GII- Buccal/sublingual, time 8 hrs)?
Answer: 2208.63 ± 86.73 pg/mL

Question: And the “Mean hGH levels” value ([1]; GII- Buccal/sublingual, time 24 hrs)?
Answer: 971.98 ± 38.36 pg/mL

Question: What about the “Mean hGH levels” value ([1]; GII- Buccal/sublingual, time 48 hrs) of the same substance?
Answer: 256.84 ± 13.49 pg/mL

Question: What does the source list for “Human Insulin R: peptide/protein hormone structurally identical to human insulin synthesized through rDNA technology; SC marketed liquid or lyophilized microparticles in sugar truffle shell”?
Answer: AUC 0-inf/D_obs ([2]; 2.08 mg): 7418.052 mU/L*h/(mg); AUC 0-inf/D_pred ([2]; 2.08 mg): 7439.299 mU/L*h/(mg); AUC 0-inf_obs ([2]; 2.08 mg): 2574.064 mU/L*h; AUC 0-inf_pred ([2]; 2.08 mg): 2581.437 mU/L*h; AUC 0-t ([2]; 2.08 mg): 2511.461 mU/L*h; AUC t-inf_obs ([2]; 2.08 mg): 62.603 mU/L*h; AUC t-inf_pred ([2]; 2.08 mg): 69.975 mU/L*h; Cl/F_obs ([2]; 2.08 mg): 0.000 (mg)/(mU/L)/h; Cl/F_pred ([2]; 2.08 mg): 0.000 (mg)/(mU/L)/h; Cmax ([2]; 2.08 mg): 330.950 mU/L; MRT 0-inf_obs ([2]; 2.08 mg): 11.492 h; MRT 0-inf_pred ([2]; 2.08 mg): 11.639 h; MRT 0-t ([2]; 2.08 mg): 10.214 h; Tmax ([2]; 2.08 mg): 0.500 h; Vz/F_obs ([2]; 2.08 mg): 0.002 (mg)/(mU/L); Vz/F_pred ([2]; 2.08 mg): 0.002 (mg)/(mU/L); t½ ([2]; 2.08 mg): 10.234 h; AUC 0-inf/D_obs ([2]; sc, 0.347 mg): 3483.581 mU/L*h/(mg); AUC 0-inf/D_pred ([2]; sc, 0.347 mg): 3434.617 mU/L*h/(mg); AUC 0-inf_obs ([2]; sc, 0.347 mg): 1208.803 mU/L*h; AUC 0-inf_pred ([2]; sc, 0.347 mg): 1191.812 mU/L*h; AUC 0-t ([2]; sc, 0.347 mg): 1101.784 mU/L*h; AUC t-inf_obs ([2]; sc, 0.347 mg): 107.019 mU/L*h; AUC t-inf_pred ([2]; sc, 0.347 mg): 90.028 mU/L*h; Cl/F_obs ([2]; sc, 0.347 mg): 0.000 (mg)/(mU/L)/h; Cl/F_pred ([2]; sc, 0.347 mg): 0.000 (mg)/(mU/L)/h; Cmax ([2]; sc, 0.347 mg): 316.870 mU/L; MRT 0-inf_obs ([2]; sc, 0.347 mg): 13.028 h; MRT 0-inf_pred ([2]; sc, 0.347 mg): 12.134 h; MRT 0-t ([2]; sc, 0.347 mg): 6.938 h; Tmax ([2]; sc, 0.347 mg): 2.000 h; Vz/F_obs ([2]; sc, 0.347 mg): 0.008 (mg)/(mU/L); Vz/F_pred ([2]; sc, 0.347 mg): 0.008 (mg)/(mU/L); t½ ([2]; sc, 0.347 mg): 19.218 h; AUC 0-inf/D_obs ([3]; 0.52 mg): 4373.827 mU/L*h/(mg); AUC 0-inf/D_pred ([3]; 0.52 mg): 4364.913 mU/L*h/(mg); AUC 0-inf_obs ([3]; 0.52 mg): 2274.390 mU/L*h; AUC 0-inf_pred ([3]; 0.52 mg): 2269.755 mU/L*h; AUC 0-t ([3]; 0.52 mg): 2204.699 mU/L*h; AUC t-inf_obs ([3]; 0.52 mg): 69.691 mU/L*h; AUC t-inf_pred ([3]; 0.52 mg): 65.056 mU/L*h; Cl/F_obs ([3]; 0.52 mg): 0.000 (mg)/(mU/L)/h; Cl/F_pred ([3]; 0.52 mg): 0.000 (mg)/(mU/L)/h; Cmax ([3]; 0.52 mg): 331.520 mU/L; MRT 0-inf_obs ([3]; 0.52 mg): 11.202 h; MRT 0-inf_pred ([3]; 0.52 mg): 11.097 h; MRT 0-t ([3]; 0.52 mg): 9.580 h; Tmax ([3]; 0.52 mg): 0.250 h; Vz/F_obs ([3]; 0.52 mg): 0.003 (mg)/(mU/L); Vz/F_pred ([3]; 0.52 mg): 0.003 (mg)/(mU/L); t½ ([3]; 0.52 mg): 10.064 h; AUC 0-inf/D_obs ([3]; sc, 0.087 mg): 6997.06 mU/L*h/(mg); AUC 0-inf/D_pred ([3]; sc, 0.087 mg): 6935.40 mU/L*h/(mg); AUC 0-inf_obs ([3]; sc, 0.087 mg): 2427.98 mU/L*h; AUC 0-inf_pred ([3]; sc, 0.087 mg): 2406.58 mU/L*h; AUC 0-t ([3]; sc, 0.087 mg): 2382.00 mU/L*h; AUC t-inf_obs ([3]; sc, 0.087 mg): 45.98 mU/L*h; AUC t-inf_pred ([3]; sc, 0.087 mg): 24.58 mU/L*h; Cl/F_obs ([3]; sc, 0.087 mg): 0.00 (mg)/(mU/L)/h; Cl/F_pred ([3]; sc, 0.087 mg): 0.00 (mg)/(mU/L)/h; Cmax ([3]; sc, 0.087 mg): 332.03 mU/L; MRT 0-inf_obs ([3]; sc, 0.087 mg): 8.70 h; MRT 0-inf_pred ([3]; sc, 0.087 mg): 8.26 h; MRT 0-t ([3]; sc, 0.087 mg): 7.74 h; Tmax ([3]; sc, 0.087 mg): 0.50 h; Vz/F_obs ([3]; sc, 0.087 mg): 0.00 (mg)/(mU/L); Vz/F_pred ([3]; sc, 0.087 mg): 0.00 (mg)/(mU/L); t½ ([3]; sc, 0.087 mg): 7.21 h; bioavailability when compared to SC or IV administration [4]: greater than 7%
